A short description of this series: label from the status in PepcDB records.

Regarding “MNASTSPLPASDQTLRGILLICAAVFLFASHDGLSKFLSGFYPIVMVVWARYLVHTLLMVAVFVPRNGLAVIRSRRPLMQLARALCLIGTSLFFTTGLRYLPLAEATAVNFLAPLLVTALSVPLLKEKVSLGQWLAVLTGFIGVLFIVRPGGALFTPAALFPLGSALCFGLYQLLTRMLANSDSPTTSNFLAGIFNTLIMSLLVPFFWQTPSLLHGLMMIALGGCGMGGHLLLTQAFRHAPPATLAPFSYGQIIFAGLLGLLVFGHVPDAWALLGILVICASGLVVAWRRGR”, the protein production entry is “failed”.

Regarding “MNATHDLQSTPSRLRRFACMMYEGVLLFGVVFIASYLFDTLTQSKHGLMLRDGRQVWLFLVIGLYFVLCWRRRGQTLPMKTWNIRLVDRDGQPPSTPRLVLRYVLAWPLPLGAAALVWLASSLTGWRSVDMFIVLAPFAIFAWSWVDPDGQFLHDRLLGTRLRNAPPRAARAVAGT”, the protein production entry is recorded as “failed”.

“MNATLIDCCDPQKPSRVLFHFLILDAPSPSNLPTYIKELQHRGVRHLVRVCGPTYDATLVKSRGIDVHSWPFDDGAPPTRAVLDSWLKLLDTELARQQEDPSVPPPTIGVHCVAGLGRAPILVALALVEYGNVSALDAIALIREKRKGAINQTQMHWITKYKR”: the protein production result was “not failed”.

As to “MNATSTAPSSRHTLRSLAGDVFELLGSMRFAVSLLMFICIASIVGTVLAQNRPSNVYVDQFGPFWFEVFDKFSIWHVYNSWWFLLIMTFLVVSTSVCLIRNTPKMLREARSFREHVRASSLRAFPHRLQTEVAQPVSETAQGVTGLLGQFGYAVRERRDGDGIMLAAKKGSANRLGYIFAHSAMVIICIGGLLDSEAPVRLQVLFDGKQPIAINGEMARADIPDSALLSVNNPSYRANLWVPEGSNASLATIAVNDRSLVQPLPFSLRLKKFTVDYYSTGMPSRFLSLVEVTDPETGEMFDQTIEVNEPLRYKGVTVYQSSFDDGGSSVSLTGYPLVGAGDTPFKVDGVVGQTSEIGARIGDQPKSMKIEFTALRVINVEDFSGGQPGAQNLSLREHVASVAGSAAGKKNENLRNVGPRIDYKLIDDAGQAHEFQNYMLPVVLDGVPVFLSAVRNNPADDFQYLRIPADDQGSLAEFMRLRAALADPAARQEAARRFAERNAPSGTDRQPLETAAQRALATFAEGGLQAIADFLQANTAPDDLERAAGIVVRLVGASVAELRDIARARAGLPALPQSGPQADEAAQWSRVAVAALSDLAFYPAPVMFSLTDFQERQGSVFQVARTPGKNAVYLGCVLLILGIFAMFYIRDRRVWVWVKPAADGAGSSIEAAMTSQKRTLDFNQEFDRLREALLRQSKP”, the protein production result is on record as “failed”.

On to “MNDDKDVVIDQIYYISTDPSATTYPTTFSVSLVDNSVAGRPFFYVVGKSTMRVDRNTTLRVEEDSKLVEKYNETYGKKYLPFPEGTYSFSTNEVTINQGDNFSSDTIFISFSNWDKLSKIDKYLLPVSLKAVDDKGAVSMDRNLIYFIADFSTTNTGYNKPAAWKPLDRTDWDVSFSYAYGYDEAQFGGRLAVDGDVSTTWFTWGVVSAGECWWATTLPAPTHLTGFSLTRQTTFGSSYNVREAKVKVKKEGDTEWTEAGLFRFGSFKGNDPQYAVFIPAVENVKEFRIDIVSPADFTGFAELDLYQLEHHHHHH”, for which the protein production result was “failed”.

Consider “MNDGDGTPAAAARERRFGPLGTALVIIPTYNEAENIKAIVTRVREAVPEAHVLVADDNSPDGTGKLADELAAADDHVQVMHRKGKEGLGAAYLAGFRWGLEHGYGVLIEMDADGSHQPEELPRLLTALKGADLVLGSRWVPGGRVVNWPKSREIISRGGSMYSRIALDLPLRDITGGYRAFRRETLEGLGLEEVASQGYCFQVDLARRAIKAGYHVVEVPITFVERELGDSKMSRDILVEALWRVTTWGVGERVGKVLGRDRRSGTAADGQTASSGTDGRTASSDRSTDSLDESAKASDAKA”, for which the protein production entry was “failed”.

On to “MNDIQQALQEALTHHQAGRLGEAKTLYDAILHAQPGQPDAMHFLGLLACQLKQYDAGLALMERSLAERPDASYFNNLGNMLRECGRLDDAIAHYRRAVALRPDYPEAHNNLGNALRDARDPAEAMRSCSRAIELRPGYAEAYNNLGNVLQDLGELDAAAASYGKAIAFHPAYAEAHSNLGNVLRAQERHADAIVHYRRAIELNPALRVAHRGLAIALRATDDFDGALEHARAGLEPDDAEGHCMLGRSLRSMNDFDGAARLFERACEIDPGYAPAWCRLGELRCQQGEYEESLRLCRHAIELDPELADAYNFLGLAYHNLDRMAASELSHRHAIDLNPDDADAHHNLAAALFRLDKLDEAMSEYRIAQELGVDPVKIQLTLGDILWAKRDFSGAVAAFREAVEHDPHRAYARLLFNMSSSPAFAPEEWVVDAQRYGDYLARDARLLSHDREQRARQARGRPLRVGFVSGDLRQHPVGIFLESVLAHLDRTRIEPHAYVTFVVEDDVTARLKTGFASWKKLTCLNRDQAARMIHDDGIDVLVDLAGHTNWSGLPVFAHRPAPVQASWLGFFATTGCRAIDYFIGDPHTLPADEAHHFVEQPWHLPDSYLCFTPPAYDVAVGPLPMATNGGVTFGCFGKLTKISDDVIALWSRLLHALPDARLMLKAHELGASDLNRATLERFARHGIGAHQLILEGGSPRAEYFNAYNRIDIALSPFPYPGGTTTAEALWMGVPVIGMKGGRFVTHICESLLHAAGMGDWIAADEDAYLAKAIAFAGDRDALAALRATLRERTLASPLCDAARFARNLEDAFHGMWARYVAGDTDGART”, for which the protein production entry is “failed”.

Regarding “MNDISVSADRHAIERGSFNGNAKEYFGIWIVNILLTIMTLGIYSAWAKVRRKRYFNGNTLLAGRAFGYHATGGQIFKGRLIAFAFIVFSQLVGLIHPFLVFAPTILLLIFLPWVITRSIRFNARVTSYRNVRFDFVGTAWGAFVSILLGSFVALLSIGILAPLASRWANRYIVSNLHYGDRRFSTDPKIGALYRAWIIPALLVVVGGVLAVFLLIFLAMVLVQAAGIGSRELATAPENYEIVTLFGLGQILINLLVAMLIYGFASTVYKAGVRNVVVSSTLLDGKHELHSDLHRGRYLWIVFSNLIVTIFTFGLMRPWAAVREAQYAVERMGISFKGDMGEVLSSMEATGAAVSAEYMDMEGFEFGF”, the protein production entry is given as “not failed”.

For “MNDQVLRTQTDRRQLQQIIAGLTEGVILIEPDQRILWANEAALAMHGVDSLEGLGADTGEYRERFRLRYRNNHPLQEGQYPAERLVAGECFSDVVVEVFPAADEDTRWVHRVRGLVLTTPEDKPDCLVLILHDAT”, the protein production result was “not failed”.

In the case of “MNDRPNNYILTRESGFKVITELTKGQNCNGAETHPINGELYFNSWNAGQVFRYDFTTQETTPLFTIQDSGWEFHIQFHPSGNYAYIVVVNQHYILRSDYDWKTKRLTTPYIVCGQQGAKDWVDGVGKKARMHAPRQGTFVKNPAYKGSSDEYDFYFCDRENHCIRILTPQGRVTTFAGRGSNGTSGYNDGDLRQEARFNHPEGIVYDEERECFFIGDRENRRIRKIGLEHHHHHH”, the protein production result is “not failed”.

As to “MNDTYQPINCDDYDNLELACQHHLMLTLELKDGEKLQAKASDLVSRKNVEYLVVEAAGETRELRLDKITSFSHPEIGTVVVSES”, the protein production result is “not failed”.

On to “MNEKVYYFIKSYDDSLPMPPAESFGQILNETYLHPFDWSARTTRKSYWWSVLINFILSILCIVLGFYAFNKNINPGIRVIDAVVAIVVYLWVFLAGLGQMVRRLHDVGYSGYWYWSTFTGYGTMFLFYLALQPSAQRKVKWGKYLFSDQDYPEGKKEKVPVPTIGQILKEHFFDCFNWDARSTRTSFWVGTAINQVVMVIGVLACYLIAFLLFLPFRVTGLNSDDSKVIAVFFIIFLIFFAAVTIWAFLAQLGHTVRRLHDAGFNGGWWWLSVIPYVGQLLLAFLLFHPTVKNEVKWNKYLFDPEDRIR”, for which the protein production result was “failed”.

Consider “MNELLLITFSPLVAGVLAWLVRIRGVRESLGILGAIVPLAFLIKLYPSLDHPIRATISLGGFELGFSMSHLNWVFSMIAAVVGLSAVFGMASTAKDSYEWLFSLMSLTGALGIFMAQDLVTFFIFWEVMTFSSFMMVLKFNRAASLKYLILSIIGAYSMLVAIGIIYAKTGTFTFADISAFFRKEAMLAMLGGKSTFSRFDMALIYLLFLMAFGVKAGMFPLHVWAPDAYSETDQSYTAIFSGVLSKTGVYGFILLYVLMYGKLLIDLGQFKGTPLFGYIIAFLGGLTIIIGGVLAALQEDIRKLFAYSSISQVGYILVGLGIGTSLGIEAAIYHAISHALFKGLFFLVVATIIYRTGKTEFKDFGGLAEKMPFTFAMAFIAILSLAGIPPLVGFASKWLIFEAVISQKLPILGGMLFFGSAIGFVYLIRFTYAVWFGQRPSDIEDTKDAPLPLAIGMGILGTLNVVFGVAPGLVAKELNAIFGNPVIGGNIWELDLGFGRYNALLVAIWLVIGVLIAAILYFLGASTRKVPVTDTYQSGNPVTMEYNLTIRRNFFLPLKETMAFWLRISFDKLYKDTWKAIEDFAETARNYIYNGNVQAYAWYLAIILLILAAMGV”, for which the protein production result is “failed”.

In the case of “MNEPLHLYVHIPFCLKKCRYCSFVSRSDAPLAIDDYASLVAREMEMRVAAANPLPLSPATTLYLGGGTPSLLSPAALERIIDAAARSYGLGPGAEITLEANPGTVTFQRLADFRSAGVNRLSLGVQSFDDGMLVLLGRLHTARQAREAVAATRRAGFDNIGIDLIHSLPGQTPDQWREQLACAVALNPDHVSAYGLTVEEGTPFAAMEERGELVLPDEEQSALMFEATTDVLVSAGFEHYEIANFARPHRRSRHNQVYWLRRNYLGFGAGAHSFLRAPAFGVRWKNTDDLELYRDTLAAAELPGEERTVLSRADAMAEFFFLGLRLLDGVREEDFVREFGDTMENVYGREMERLCSAGLLMREGGRLKLSRRGVILANRVFASFL”, the protein production entry is “failed”.

For the sequence “MNEQIDPFYEAKQEVDISVNKLQSLYNNWNNIPDKSSISAREKYNLIKEEIKYLNEDLNDLDNSVNIVKKNSYKFNISSQEIEERTQSLRIIRNLLNEITNNINNNVLSYNNNTNNDYNSVILKRQDNDLEELAESAERLHHAAITINTELKDQQKLLDELENEMDISSNEYKMDIYSIYIFVYFEFS”, the protein production result is on record as “failed”.

For “MNESAGGRTPVPPAAWVFGLSTLIPFFIASGLFCYGPVAIRKSALLGLLAYSAAMVSYFGGVRTGLEIENPSPRWSVLGISLLFPLAGFGLLLGGLKFEAAWQLSGFLLVFLLQWVWDVTDHEGPSWRPRMRTLMTAGAAISLAFALEQALHM”, the protein production result was “failed”.

On to “MNEYFFPKLTAVEALAPYRLRTTWSTGEVLEVDVGDILRKIPDLAPILDPEAFARVHIAEWEGSVEWFDTEFGRDNVYAWAKEQAGEVSHEMFGDWMHRNNLSLTTAAEALGISRRMVSYYRTAHKIIPRTIWLACLGWEATRPETKTLPRTLPAAYAKGVSASLS”, for which the protein production result was “not failed”.

In the case of “MNEYQIKFKEDCYYAENNAGKVIGELLYSKIKQGKVISINQVRVDPLFRNRGIAGKLLKKAVDDAVKNGQLIKAVCSFSKKAFLQNKNYQKYEYKEN”, the protein production entry is “failed”.

As for “MNFDSYIFDFDGTLIDTTTCHVKATQSAFKRLNLDEPTEQAILHTYHLNLYNNFKALASHELSFYQIEKLIDEYNHCFSNDEIHQSKEYTGISEVLKFLHNQKKKIFVVSNKETLTTQKYLDYLGLSRFITDSLGVCIKNEDKLLCETIQNLIQKHHLMIGKTVYIGDTAQDIKSANQAHVQTCAVTWGAQSAHELLHEDPHYVVNDPEEFLTIL”, the protein production result is “failed”.

“MNFEGIIIAAISFFIIGIFHPIVIKLEYYLTKNIWPLFLILGIIFIIISLFQKQTVAAAIMGIIGATCIWSIKEIFEQEKRVQKGWFPKNPRKK”: the protein production result was “failed”.

Take “MNFFKILLMELRAIVSHKGVLLILIGAPLIYGLLYPLPYLRDIVTQQKIALVDEDNSFLSRQLAFMAQSSNELEIAFFSPSMLEAKKLLKEEKIYGILHIPSHFEANIHKQVPVTIDFYANSNYFLIYGALANAVVESINALNDEIRFKRNAQIEEAELGTDGIKIRPIALYNPSEGYLNYALSSVFIFILHQVMLIASSMFTSSRRLELALLDRKQIALRLCTRLLVFMGAFSVFILWYFGALFSFYGIERHGSALMVFLNSLIFMLATLSLGSFLGAWIKNEAHTTQIVLISSLPLIFMMGFVWPFESLPSYLQVFVQIVPAYHGISLLGRLNQMHAEFIDVSFHFYALIAIFIASFIGSVFKLSSLKKACENA”: the protein production entry was “failed”.

These data come from a protein production outcome set (Wang et al. 2014).
